Experimental data taken from patent EP1161262B1 (University of Maryland, Baltimore, dated 2008).

T1: colligin/Hsp47 of the murine Lewis Lung Carcinoma (LL/2) cell line (murine, UniProt P19324 18-417)
T1 construct: whole, on cells; Endogenous protein of LL/2 cells
T1 sequence (looked up): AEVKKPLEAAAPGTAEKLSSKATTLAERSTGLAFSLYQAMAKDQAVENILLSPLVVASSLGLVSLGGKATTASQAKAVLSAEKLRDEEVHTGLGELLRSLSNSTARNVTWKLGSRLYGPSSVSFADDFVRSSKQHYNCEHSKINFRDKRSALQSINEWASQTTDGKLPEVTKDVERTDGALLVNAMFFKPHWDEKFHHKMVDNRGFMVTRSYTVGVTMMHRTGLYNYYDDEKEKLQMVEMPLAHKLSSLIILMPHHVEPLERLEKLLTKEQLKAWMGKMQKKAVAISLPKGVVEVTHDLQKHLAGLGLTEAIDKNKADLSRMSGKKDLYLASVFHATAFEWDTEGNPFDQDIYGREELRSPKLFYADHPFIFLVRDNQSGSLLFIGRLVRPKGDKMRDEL

T2: colligin/Hsp47 on the surface of human carcinoma cells (human, UniProt P50454 19-418)
T2 construct: whole, on cells; Endogenous protein on cells or in plasma membrane preparations and lysates of surface-biotinylated human SCC cells; also called CBP2; colligin/CBP2/Hsp47
T2 sequence (looked up): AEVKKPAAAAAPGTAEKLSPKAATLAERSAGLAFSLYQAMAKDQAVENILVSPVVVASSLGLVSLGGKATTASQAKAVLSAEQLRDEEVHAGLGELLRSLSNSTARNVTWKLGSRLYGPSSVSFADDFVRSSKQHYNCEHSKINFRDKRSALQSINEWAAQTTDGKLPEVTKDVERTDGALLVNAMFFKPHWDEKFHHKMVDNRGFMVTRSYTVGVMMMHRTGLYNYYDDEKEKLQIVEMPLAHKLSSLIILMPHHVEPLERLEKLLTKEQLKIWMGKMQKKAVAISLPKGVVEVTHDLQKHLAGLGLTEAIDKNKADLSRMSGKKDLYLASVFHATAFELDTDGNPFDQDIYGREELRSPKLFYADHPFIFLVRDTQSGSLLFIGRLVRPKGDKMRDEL


Assays:
[1] = target: T1, colligin/Hsp47 of the murine Lewis Lung …; test: DSP cross-linking of surface-labelled cells, immunoprecipitation with anti-CD81 mAbs
[2] = target: T2, colligin/Hsp47 on the surface of human …; test: as above

binding result [1] | binding result [2] | Binder
no binding |  | CD81 of murine LL/2 cells (other, UniProt P35762 1-236, looked up, whole, on cells) MGVEGCTKCIKYLLFVFNFVFWLAGGVILGVALWLRHDPQTTSLLYLELGNKPAPNTFYVGIYILIAVGAVMMFVGFLGCYGAIQESQCLLGTFFTCLVILFACEVAAGIWGFVNKDQIAKDVKQFYDQALQQAVMDDDANNAKAVVKTFHETLNCCGSNALTTLTTTILRNSLCPSGGNILTPLLQQDCHQKIDELFSGKLYLIGIAAIVVAVIMIFEMILSMVLCCGIRNSSVY
 | no binding | CD81 of human SCC cells (other, UniProt P60033 1-236, looked up, whole, on cells) MGVEGCTKCIKYLLFVFNFVFWLAGGVILGVALWLRHDPQTTNLLYLELGDKPAPNTFYVGIYILIAVGAVMMFVGFLGCYGAIQESQCLLGTFFTCLVILFACEVAAGIWGFVNKDQIAKDVKQFYDQALQQAVVDDDANNAKAVVKTFHETLDCCGSSTLTALTTSVLKNNLCPSGSNIISNLFKEDCHQKIDDLFSGKLYLIGIAAIVVAVIMIFEMILSMVLCCGIRNSSVY
